The text below walks through data of US20140343124A1 (ROYAL INSTITUTION FOR THE ADVANCEMENT OF LEARNING MCGILL …, published 2014).

Assay [1] addresses actin (actin stress fibers / actin cytoskeleton of glioma cells). The assay can be described thus: cell-based or functional assay.
Another assay addresses T1, MYC-LC2 (UniProt P78559 2567-2803, limits assumed).
T1 construct: domain: light chain (LC2) subunit; also called LC2 (heterologously expressed, MYC-tagged); not shown: MYC tag
T1 sequence (looked up): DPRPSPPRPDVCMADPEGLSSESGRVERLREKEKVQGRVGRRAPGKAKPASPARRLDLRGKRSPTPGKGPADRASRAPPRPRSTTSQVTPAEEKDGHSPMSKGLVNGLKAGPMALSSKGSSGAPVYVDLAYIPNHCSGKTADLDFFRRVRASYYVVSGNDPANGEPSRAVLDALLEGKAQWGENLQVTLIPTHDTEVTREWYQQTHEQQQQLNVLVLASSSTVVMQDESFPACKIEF
The assay can be described thus: co-immunoprecipitation of heterologously expressed proteins.

The molecule DRR^ΔPEPE (from UniProt O95990 1-144) came in with a fold decrease in invasiveness in a 3D invasion assay in assay [1] of 3 fold.

B1: DRR^ΔHRE (other, UniProt O95990 1-144, looked up)
chain: MYSEIQRERADIGGLMARPEYREWNPELIKPKKLLNPVKASRSHQELAAALLMNHRRGLGVDSKPELQRVLEHRRRNQLIKKKKEELEAKRLQCPFEQELLRRQQRLNQLEKPPEKEEDHAPEFIKVRENLRRIATLTSEEREL
notes: also called non-LC2 form of DRR
With B1, in the assay with MYC-LC2, the binding result is reported as “no binding”.
